The target of this assay is Alvinella pompejana Cu, Zn superoxide dismutase (Alvinella pompejana). Put plainly: SAXS.

By stoichiometry N is commonly meant a count of units in the complex or per binding partner. For the substance “Alvinella pompejana Cu, Zn superoxide dismutase (enzyme)”, the stoichiometry N worked out at 2.

Source of the values: publication PMC2669833.
